Key:
[1] = target: T1, recombinant mouse proNGF (rm-proNGF) (mouse, UniProt P01139 19-241); assay: SPR (BIAcore 2000), antibody amine-coupled on CM5 chip (3000 RU), rm-proNGF injected, kinetic analysis
Procedure: The injected concentrations of the rm-proNGF are indicated on top of each curve.
(§1) Experiments were performed on CM5 chips with amine coupling, using a BIAcore 2000 machine. Coupling was performed with a specific kit purchased at BIAcore and the coupling reaction was carried out according to manufacturer's instructions.
(§2) Anti-NGF antibodies were immobilized on chip, while mouse NGF (m-NGF, Alomone) or recombinant mouse proNGF (rm-proNGF) were injected at decreasing concentrations to obtain binding curves.

[2] = target: T2, mouse NGF (m-NGF, Alomone) (mouse, UniProt P01139 122-241); assay: SPR (BIAcore 2000), antibody amine-coupled on CM5 chip, m-NGF injected
T2 construct: mature; Commercial m-NGF
T2 sequence (P01139 122-241 limits assumed): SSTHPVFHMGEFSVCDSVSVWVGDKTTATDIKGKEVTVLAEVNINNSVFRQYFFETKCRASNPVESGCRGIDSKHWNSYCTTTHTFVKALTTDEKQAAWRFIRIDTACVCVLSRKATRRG
Procedure: For m-NGF binding, the immobilization of the antibody was of 3000 resonance units (RU) in the experiment of panel A and of 6000 RU in the experiment of panel B. The injected concentrations of the m-NGF are indicated on top of each curve. From a complete analysis of the data, the affinity parameters were evaluated, and resulted to be the following.
as §1, §2

[3] = target: T1, recombinant mouse proNGF (rm-proNGF); assay: SPR (BIAcore), antibody immobilized

T1 sequence (P01139 19-241): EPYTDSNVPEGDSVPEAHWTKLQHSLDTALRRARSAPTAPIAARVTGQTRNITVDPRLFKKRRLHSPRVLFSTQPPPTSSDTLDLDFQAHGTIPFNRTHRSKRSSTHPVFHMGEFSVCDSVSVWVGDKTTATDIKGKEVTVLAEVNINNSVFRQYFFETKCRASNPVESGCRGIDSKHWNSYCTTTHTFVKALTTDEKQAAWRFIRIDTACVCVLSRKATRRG

B1: αD11 anti-NGF antibody (antibody, V domains shown)
VH: QVQLKESGPGLVQPSQTLSLTCTVSGFSLTNNNVNWVRQATGRGLEWMGGVWAGGATDYNSALKSRLTITRDTSKSQVFLKMHSLQSEDTATYYCARDGGYSSSTLYAMDAWGQGTTVTVSA
VL: DIQMTQSPASLSASLGETVTIECRASEDIYNALAWYQQKPGKSPQLLIYNTDTLHTGVPSRFSGSGSGTQYSLKINSLQSEDVASYFCQHYFHYPRTFGGGTKLELK
notes: Rat monoclonal antibody purified from hybridoma supernatant; the constant regions are not; also called alphaD11; aD11
[1]
  Ka: 1.2e+09 M⁻¹
  Kd: 1.9 nM
[2]
  Kd: 0.0028 nM

B2: Hu-αD11 (humanized variant of the αD11 anti-NGF antibody) (antibody, V domains shown)
VH: EVQLVESGGGLVQPGGSLRLSCAASGFSLTNNNVNWVRQAPGKGLEWVGGVWAGGATDYNSALKSRFTISRDNSKNTAYLQMNSLRAEDTAVYYCARDGGYSSSTLYAMDAWGQGTLVTVSS
VL: DIQMTQSPSSLSASVGDRVTITCRASEDIYNALAWYQQKPGKAPKLLIYNTDTLHTGVPSRFSGSGSGTDYTLTISSLQPEDFATYFCQHYFHYPRTFGQGTKVEIK
notes: also called Hu-alphaD11; Hu-aD11
[3]
  binding result: binds

Reference: patent US20090208490A1 (AbbVie / Abbott, published 2009)
